Assay results reported in the supplement of paper PMC10567573.

B1: PCMTD2 (parent)
chain: FFIRTSDSFDKFDFCEPSFVTGNC

Variants of: B1
Experiment: protein stability index of a GFP-peptide fusion (GPS, HEK-293T) (PSI 1-6); higher = more stable
Details: c terminus: a fixed tail appended
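Note: lentivirally expressed fusions sorted by FACS into six bins by GFP to DsRed ratio, PSI derived from sequencing read proportions per bin multiplied by bin number.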

Protein stability index, by site and new letter:
D10: M 3.52, E 2.27, G 2.61, N 2.72, K 3.06, A 2.7, F 3.53, Q 2.54, W 3.23, T 2.81, L 2.67, S 2.22, V 3.82, R 2.56, P 2.94, C 3.08, I 2.31, H 2.83
F12: M 2.05, R 1.77, T 2.22, A 2.4, P 1.61, E 1.92, L 3.58, W 3.92, V 2.47, D 1.69, S 1.71, K 1.99, Q 1.69, Y 2.79, G 2.05, C 2.74, N 1.61, H 2.07, I 2.05
S6: N 3.26, K 2.59, Q 3.19, F 2.43, Y 2.48, E 1.99, G 2.33, D 3.28, C 1.99, W 2.61, I 2.29, H 2.91, A 2.04, M 2.53, T 3.34, R 3.11, V 2.23, P 2.53
T5: H 2.39, G 1.92, I 3.08, Y 2.88, V 3.03, M 2.69, L 2.48, F 2.61, S 3.67, E 2.14, K 2.38, W 2.53, R 1.82, N 1.75, P 3.1, Q 1.78
D13: Q 3.23, A 2.99, M 2.65, E 2.74, R 2.26, G 2.78, V 3.37, K 2.85, P 2.4, F 3.38, H 2.47, T 3.18, S 2.57, C 2.21, Y 1.6, L 3.27, I 3.44, N 2.42
D7: G 2.55, E 3.48, R 1.98, N 2.56, W 3.44, T 3.2, K 1.88, S 3.69, H 1.69, Y 2.41, L 2.31, V 2.77, C 2.8, I 3.18, A 2.62, F 3.74
F14: E 2, D 2.42, G 1.82, H 1.94, C 2.76, A 2.31
K11: C 2.65, V 3.4, Y 3.27, L 2.42, Q 3.58, A 2.13, I 3.4, M 4.28, R 3.1, P 2.72, W 3.22, G 2.57, F 3.16, S 3.53, N 2.42, D 2.86, E 2.95, T 2.84, H 2.24
F9: C 2.04, K 2.16, L 2.12, E 1.9, Q 1.92, G 2.53, R 1.7, W 2.6, M 2.99, I 2.47, Y 2.82, S 1.66, V 1.75, P 1.28, T 1.7, A 1.95, H 2.24, D 2.03, N 2.18
S8: T 1.61, C 3.14, R 2.44, F 2.38, W 4, Q 3.03, P 2.35, D 1.95, A 2.85, E 1.91, K 1.72, L 3.06, V 4.76, I 2.54, H 3.25, Y 3.02, M 1.94, N 2.13
